Legend:
Test in all cases: cell_activity
[1] = test system: CCR5-specific ZFN pair (synthetic construct); settings: K562, unsorted, Cel-1 assay; 37.5% after SSA sorting
[2] = test system: Factor IX-specific ZFN pair (synthetic construct); settings: K562, unsorted, Cel-1 assay; 40.79% after SSA sorting
[3] = test system: WAS-specific ZFN pair (synthetic construct); settings: K562, Cel-1 assay, day 3

CCR5 ZFN target site
activity [1]: 25 % NHEJ

Factor IX ZFN target site
activity [2]: 17.9 % NHEJ

WAS ZFN target site
activity [3]: 17.9 % NHEJ
